Measurements published in US20100197581A1 (TIBOTEC PHARMACEUTICALS, published 2010).

Molecular target: sCD4 induced HIV-1 IIIB Env complexes (gp120/gp41 native spikes) on HUTIIIB cells (clone 199-76) (HIV-1 IIIB; human, UniProt P04578 33-856; P01730 26-396)

B1: F105 (antibody, V domains shown)
VH: QVQLQESGPGLVKPSETLSLTCTVSGGSISSHYWSWIRQSPGKGLQWIGYIYYSGSTNYSPSLKSRVTISVETSKNQFSLKLTSMTAADTAVYYCARGPVPAVFYGDYRLDPWGQGTLVTVSS
VL: EIVLTQSPGTLSLSAGERATLSCRASQSVSSRYLAWYQQKPGQAPRLLIYGASSRATGIPDRFSGSGSGTDFTLTISRVEPEDFAVYYCQQYDNSVCTFGQGTKLEIK
Question: B1 was tested. Which EC50 did it give?
Answer: > 100 nM
